The target of assay [1] is 原核表达并纯化的sIFN-λ4重组蛋白 (porcine IFN-λ4, E. coli, pET-15b-sIFN-λ4) (pig). The assay is described as follows: indirect ELISA, purified ascites antibody diluted 100-fold and then in 2-fold steps to 100×2^12. A general note: ELISA stands for enzyme-linked immunosorbent assay.
Assay [2] has the same target. The experiment in a line: indirect ELISA, antigen coated in 2-fold dilutions; positive if OD630nm of the well : OD630nm of the negative well ≥2.1.

Here are results for one molecule from patent CN115125215A.

B1: 单克隆抗体λ4-1A2 (sIFN-λ4单克隆抗体, secreted by hybridoma cell line λ4-1A2, CCTCC NO:C2022132) (antibody, V domains shown)
VH: QVTLKESGPGKLQPSQTLTLTCSFSGFSLNTYGIGVAWIRQPSGKGLEWLAHIWWNDNKYYNSALKTRLTISKDTSNNQVFLKIASVDTADTATYYCASIKGDYWGQGTS
VL: NIVLTQSPASLAVSLGQRATISCRASKSVDSFGKSFMHWYQQKPGQPPKLLIYLVSNLESGVPARFSGSGSRTDFTLTIDPVEADDAATYYCQQNNEDPPTFGGGTKLEIKR
Molecule B1 yielded a 效价 (ELISA titre) (fold dilution) in assay [1] of 205000. The molecule further displayed a 最低检测限 (lowest detectable amount of coated antigen) in assay [2] of 6.25 ng.
